Results from patent US20220174981A1, “PROLINE TOLERANT TRIPEPTIDYL PEPTIDASES AND USES THEREOF” (DuPont Nutrition Biosciences APS, priority 2014, published 2022).

Key:
azocasein = assay: Azocasein assay for endoprotease activity; assay type: biochemical; settings: PepN applied in WPI hydrolysis
Experimental: (§1) A modified version of the endoprotease assay described by Iversen and Jørgensen, 1995 (Biotechnology Techniques 9, 573-576) is used. An enzyme sample of 50 μl is added to 250 μl of azocasein (0.25% w/v; from Sigma) in 4 times diluted McIlvaine buffer, pH 5 and incubated for 15 min at 40° C. with shaking (800 rpm). The reaction is terminated by adding 50 μl of 2 M trichloroacetic acid (TCA) (from Sigma Aldrich, Denmark) and centrifugation for 5 min at 20,000 g. To a 195 μl sample of the supernatant 65 μl of 1 M NaOH is added and absorbance at 450 nm is measured. One unit of endoprotease activity is defined as the amount which yields an increase in absorbance of 0.1 in 15 min at 40° C. at 450 nm.
as §1, with “Jorgensen,” for “Jørgensen,”, “1995” for “1995 (Biotechnology Techniques 9, 573-576)”, “TCA” for “trichloroacetic acid (TCA) (from Sigma Aldrich, Denmark)”, “C.” for “C. at 450 nm.”
Endopeptidase side-activity was measured with the azocasein as described in Example 2.

sodium caseinate = assay: 5% sodium caseinate hydrolysis with endopeptidase, TRI083 and PepN, serine equivalents; assay type: biochemical; settings: doubling of the PepN activity from 786 to 1572 nkat/mL
H-Ala-Ala-Ala-OH = assay: Pre-hydrolysis of H-Ala-Ala-Ala-OH by PepN, gas chromatography; assay type: biochemical; settings: 24 h, 40° C., pH 4.0
Experimental: The inhibition experiments were set up as described in Example 14. Furthermore, 1 mg/mL H-Ala-Ala-Ala-OH (Bachem, Switzerland) was subjected to general aminopeptidase (PepN) hydrolysis for 24 h at 40° C. in 12.5 times diluted McIlvaine buffer (pH 4.0). For this, […] H-Ala-Ala-Ala-OH was dissolved in 8 mL 10 times diluted McIlvaine buffer (pH 4.0) and filled up to 10 mL with purified PepN (1,572 nkat/mL [pH 6.5]). After 24 h of hydrolysis, the PepN hydrolysis was terminated by heat inactivation of the PepN (90° C.; 10 min). The degree of pre-hydrolysis of H-Ala-Ala-Ala-OH was determined by gas chromatography (Husek, 1991; FEBS-Letters 280, 354-356). About 0.18 mg/mL alanine was measured, which corresponds to about 54% hydrolyses of the initially applied H-Ala-Ala-Ala-OH.

[1] = test system: whey protein isolate (WPI); assay: 15% WPI hydrolysis at pH 6, 50° C. with endopeptidases, TRI079 and PepN; assay type: biochemical; settings: 24 h
Experimental: For WPI hydrolysis, Lacprodan-9224 (Arla Food Ingredients, Denmark) was employed, a 15% (w/w) WPI suspension was prepared in H2Od and adjusted to pH 6 with sodium hydroxide. To prevent microbial growth, 0.0285% (w/w) NaN3 was added. Subsequently, 0.5% (w/w on protein substrate) Food Pro® Alkaline Protease and 0.5% (w/w on protein substrate) Food Pro® PNL was added and a volume of 200 μl of the WPI suspension was transferred into each of the 96 wells of a microtiter plate (MTP; VWR, Denmark). Following this, 5 μl of the proline tolerant tripeptidyl peptidase TRI079 containing either 0 or 2188 nkat/mL and 5 ul of PepN (described in EXAMPLE 10) containing either 0, 197 or 393 nkat/mL were added to the particular wells of the MTP. Then, the MTP was sealed and placed in an incubator at 50° C. (iEMS incubator/shaker HT, Thermo Scientific, Denmark).
After 24 h of incubation and shaking at 400 rpm, the hydrolysis was stopped by addition of 20 μl of 2 M trichloroacetic acid (TCA; Sigma-Aldrich, Denmark), except for the reference (0 h) to which the TCA was added prior to endo- and exopeptidase addition. […] The measured absorptions at 340 nm in a MTP reader (VersaMax, Molecular Devices, Denmark) were transformed into serine equivalents employing a serine calibration curve (0-2 mM).

H-Ala-Pro-pNA = target: T1, H-Ala-Pro-pNA (Lactobacillus helveticus, UniProt Q10730); assay: X-prolyl-dipeptidyl (PepX) side-activity; assay type: biochemical; settings: PepN applied in WPI hydrolysis
T1 construct: His-tag; made in house; host or cells: E. coli
T1 sequence (Q10730 1-844 F39I/L44F/S342A/S372G/S496N/T525I/H527L): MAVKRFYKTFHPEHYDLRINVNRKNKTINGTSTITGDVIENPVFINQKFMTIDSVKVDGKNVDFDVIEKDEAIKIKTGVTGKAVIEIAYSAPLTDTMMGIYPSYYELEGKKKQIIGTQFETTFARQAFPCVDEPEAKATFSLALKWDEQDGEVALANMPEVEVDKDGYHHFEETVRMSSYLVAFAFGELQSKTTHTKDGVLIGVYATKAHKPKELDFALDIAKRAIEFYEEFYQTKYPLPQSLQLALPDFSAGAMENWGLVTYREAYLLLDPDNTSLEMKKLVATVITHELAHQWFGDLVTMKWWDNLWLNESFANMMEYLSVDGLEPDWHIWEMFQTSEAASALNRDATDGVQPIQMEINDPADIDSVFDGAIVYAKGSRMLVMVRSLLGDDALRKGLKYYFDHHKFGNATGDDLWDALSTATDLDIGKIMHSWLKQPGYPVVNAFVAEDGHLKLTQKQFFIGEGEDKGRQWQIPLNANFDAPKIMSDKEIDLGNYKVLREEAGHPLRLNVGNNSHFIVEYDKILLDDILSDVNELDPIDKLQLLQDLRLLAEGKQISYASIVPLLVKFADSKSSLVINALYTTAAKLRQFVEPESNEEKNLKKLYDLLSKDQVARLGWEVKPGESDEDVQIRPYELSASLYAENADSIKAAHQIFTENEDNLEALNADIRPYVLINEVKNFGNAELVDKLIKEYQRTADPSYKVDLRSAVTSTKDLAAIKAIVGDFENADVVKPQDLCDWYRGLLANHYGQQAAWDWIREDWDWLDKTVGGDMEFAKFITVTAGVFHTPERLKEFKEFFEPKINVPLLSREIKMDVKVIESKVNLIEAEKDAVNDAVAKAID

[2] = general aminopeptidase (Pep N) of the named origin; cited from earlier work

B1: PepN: recombinantly in E. coli expressed and His-tag purified general aminopeptidase (PepN) from Lactobacillus helveticus ATCC 12046 (protein, UniProt Q10730 1-844, looked up)
Aminopeptidase N: MAVKRFYKTFHPEHYDLRINVNRKNKTINGTSTITGDVFENPVLINQKFMTIDSVKVDGKNVDFDVIEKDEAIKIKTGVTGKAVIEIAYSAPLTDTMMGIYPSYYELEGKKKQIIGTQFETTFARQAFPCVDEPEAKATFSLALKWDEQDGEVALANMPEVEVDKDGYHHFEETVRMSSYLVAFAFGELQSKTTHTKDGVLIGVYATKAHKPKELDFALDIAKRAIEFYEEFYQTKYPLPQSLQLALPDFSAGAMENWGLVTYREAYLLLDPDNTSLEMKKLVATVITHELAHQWFGDLVTMKWWDNLWLNESFANMMEYLSVDGLEPDWHIWEMFQTSEASSALNRDATDGVQPIQMEINDPADIDSVFDSAIVYAKGSRMLVMVRSLLGDDALRKGLKYYFDHHKFGNATGDDLWDALSTATDLDIGKIMHSWLKQPGYPVVNAFVAEDGHLKLTQKQFFIGEGEDKGRQWQIPLNANFDAPKIMSDKEIDLGSYKVLREEAGHPLRLNVGNNSHFIVEYDKTLHDDILSDVNELDPIDKLQLLQDLRLLAEGKQISYASIVPLLVKFADSKSSLVINALYTTAAKLRQFVEPESNEEKNLKKLYDLLSKDQVARLGWEVKPGESDEDVQIRPYELSASLYAENADSIKAAHQIFTENEDNLEALNADIRPYVLINEVKNFGNAELVDKLIKEYQRTADPSYKVDLRSAVTSTKDLAAIKAIVGDFENADVVKPQDLCDWYRGLLANHYGQQAAWDWIREDWDWLDKTVGGDMEFAKFITVTAGVFHTPERLKEFKEFFEPKINVPLLSREIKMDVKVIESKVNLIEAEKDAVNDAVAKAID
modifications: His-tag
- endopeptidase side-activity (azocasein): free of endopeptidase
- increase of serine equivalents (sodium caseinate): 10 mM
- alanine measured (H-Ala-Ala-Ala-OH; 1 mg/mL H-Ala-Ala-Ala-OH): About 0.18 mg/mL
- hydrolyses of the initially applied H-Ala-Ala-Ala-OH (H-Ala-Ala-Ala-OH): about 54%
- DH (in %) of WPI hydrolysate ([1]; PepN 197, TRI 079 0 nkat/mL): 18.2%
- DH (in %) of WPI hydrolysate ([1]; PepN 393, TRI 079 0 nkat/mL): 18.8%
- X-prolyl-dipeptidyl (PepX) side-activity (H-Ala-Pro-pNA): free of
- Substrate Specificity [2]: Ala, Lys, Arg, Leu, Phe, Val, Ile, and Pro
- pH-optimum [2]: 6.5
- temp.-range [2]: 10-50 C.
